The values below come from US20230293578A1, “TREATMENT OF BACTERIAL VAGINOSIS” (priority 2020, published 2023).

The subject of data set [1] is G. vag strain 14.2. Nature of the data set: antibiotic synergy testing, checkerboard cross dilution method in broth cultures. In kind it is cell-based, Gardnerella vaginalis. Conditions: 4 mg/mL bLF, 24 hr.
The conditions of data set [2]: in vivo. The source says:
Zinc levels in vaginal fluid of BV have also been measured. Recommended zinc levels for bacterial growth are not readily available as zinc toxicity is low and the capacity of bacteria to store zinc is high, thus contributing to a very wide range of acceptable zinc levels that will support bacterial growth. […] Furthermore, in an L. iners based microbiome that has not progressed to full blown BV, a significant increase in calprotectin is also seen. Thus, when an altered microbiome takes hold, the body appears to be an active conspirator in discouraging L. Crispatus-type re-growth.
The remainder is expelled. This means that free iron is released from a dose of bovine lactoferrin that is partially saturated with iron and may become accessible to bacteria. Even if the released iron is immediately bound by the remaining lactoferrin, this proteolysis will inevitably increase the overall saturation percentage of the remaining bovine lactoferrin. In turn, it will also increase the saturation of human lactoferrin, since bovine and human forms exist in relative equilibrium considering that their bindings constants are similar. It also follows, that lowering the initial iron saturation of bovine lactoferrin will lower human lactoferrin's iron saturation levels and thus provide the least access to the bacterial binding proteins that scavenge iron from human lactoferrin. […]

Data set [3] concerns Gardnerella vaginalis. The data set is described as follows: G. vaginalis growth in liquid culture, viability as CFU.
Method: G. vag isolates were recovered from the vaginal discharge of BV positive patients and identification at the species level was performed by species-specific PCR using the primer pairs G. vaginalis V2-R1 and G. vaginalis V6-U2.
Cells were grown in aerobic conditions at 37° C. at 5% CO2 in PMD medium. PMD medium contains: proteose peptone No. 3 (BD211693) 15 g/L, maltone 2 g/L, dextrose 1 g/L, Na2HPO2 1 g/L, NaH2PO4 1 g/L adjusted to pH6.8. High Iron PMD medium additional contains 500 mg/L human hemoglobin. No Iron PMD is prepare by treating PMD medium with Chelex® 100 Chelating Resin (Bio-Rad Cat #1432832) then adding back 0.1 mM magnesium sulfate, 0.1 mM calcium chloride, and 10 μM zinc chloride. Low Iron PMD medium is prepared by adding 10 μM ferric ammonium citrate (FAC) to No Iron PMD. Overnight broth cultures of G. vaginalis were grown in High Iron PMD, centrifuged, resuspended No Iron PMD, incubated for 2 hr at 37° C. then diluted to 2.5×10^7 cells/mL in Low Iron PMD. Cells were grown in liquid culture for 24-48 hr then plated on agar to assess viability (expressed as colony forming units per mL (CFU)). Bulk bLF was dissolved in water and diluted in culture medium.

B1: bovine lactoferrin (protein, UniProt P24627 20-708, looked up)
Lactotransferrin: APRKNVRWCTISQPEWFKCRRWQWRMKKLGAPSITCVRRAFALECIRAIAEKKADAVTLDGGMVFEAGRDPYKLRPVAAEIYGTKESPQTHYYAVAVVKKGSNFQLDQLQGRKSCHTGLGRSAGWIIPMGILRPYLSWTESLEPLQGAVAKFFSASCVPCIDRQAYPNLCQLCKGEGENQCACSSREPYFGYSGAFKCLQDGAGDVAFVKETTVFENLPEKADRDQYELLCLNNSRAPVDAFKECHLAQVPSHAVVARSVDGKEDLIWKLLSKAQEKFGKNKSRSFQLFGSPPGQRDLLFKDSALGFLRIPSKVDSALYLGSRYLTTLKNLRETAEEVKARYTRVVWCAVGPEEQKKCQQWSQQSGQNVTCATASTTDDCIVLVLKGEADALNLDGGYIYTAGKCGLVPVLAENRKSSKHSSLDCVLRPTEGYLAVAVVKKANEGLTWNSLKDKKSCHTAVDRTAGWNIPMGLIVNQTGSCAFDEFFSQSCAPGADPKSRLCALCAGDDQGLDKCVPNSKEKYYGYTGAFRCLAEDVGDVAFVKNDTVWENTNGESTADWAKNLNREDFRLLCLDGTRKPVTEAQSCHLAVAPNHAVVSRSDRAAHVKQVLLHQQALFGKNGKNCPDKFCLFKSETKNLLFNDNTECLAKLGGRPTYEEYLGTEYVTAIANLKKCSTSPLLEACAFLTR
notes: bulk bLF dissolved in water for in vitro tests
For the molecule B1, the growth inhibited in data set [1] is on record as 19.3%. Moreover, the “share of a vaginal dose broken down via vaginal or bacterial proteases” value in data set [2] was at most 20%. Further, in data set [3] (G. vag isolate 14.2, Low Iron PMD, FIG. 2), the “concentration range of dose-dependent inhibition of G. vag growth” value lay in the range of 0.5 to 32 mg/mL. Also, the “effect on G. vaginalis growth” value in data set [3] (iron-containing bovine lactoferrin preparation) is recorded as “growth suppression”.
